Experimental findings from publication PMC9712074 (Cell Reports, 2022) are described below.

First the molecules themselves.
B1: BD55-5182 (antibody, V domains shown)
VH: EVQLVESGGGLVKPGGSLRLSCAASGFTLSNAWMTWVRQAPGKGLEWIARIKGKVDGATRDYAAPVKGRFTISTDDSKTTLFLQMNTLKTEDTAVYFCTALFTSYDMLTGRAGGRGYWGQGTLVTVSS
VL: NVMLTQPHSVSESPGKTVTISCTRSSGSIASNYVQWYQQRPGSAPTTVIYEDNQRPSGVPDRFSGSIDSSSNSASLTISGLETEDEADYYCQSFDSSNHMNWVFGGGTKLTVL
B2: BD55-5196 (antibody, V domains shown)
VH: QVHLVQSGAEVRKPGASVKVSCKASGYTFTSYFMYWVRQAPGHGLEWMGMIDPISGSTNYAQRFQGRVTMTRDTSTSTVNMELTSLRSEDTAVYYCARDGGIRFGDLSPDNWFDPWGRGTLVTVSS
VL: QSVLTQPPSVSGAPGQRVTISCTGSSSNLGAGYDVHWYQQLPGTAPKLLIYGNNNRPSGVPDRFSGSRSGTSASLAITGLLAEDEADYYCQSYDSSSLSGSKVFGTGTTVTVL
B3: BD55-5167 (antibody, V domains shown)
VH: QITLKESGPTLVKPTQTLTLTCTFSGFSLTTTGMGVGWIRQPPGKAPEWLALIYWLDDTRYSPSLESRLTLTKDTSKNLVVLTMTNMDPVDTATYYCAHLYYDSSSGYDTTGPDAFDFWGQGTMVTVSP
VL: AIQITQSPSSLSASPGDRVTITCRASQGISSFLAWYQQRRGRAPKLLIHSASTLQNGVPSRISGSGSGTDFTLTITGLQSEDFATYYCQQYYSYPPTFGHGTKVEF
B4: BD55-5001 (antibody, V domains shown)
VH: QVQLVQSGSELKKPGASVKVSCKTSGYTFSTYAINWVRQAPGQGLEWMGWINTDTGIPTYAQGFTGRFVLSLDTSVGTAYLQISSLKAEDTAVYYCARADSGSYSWWFDPWGQGTLVTVSS
VL: VIWMTQSPSSLSASIGDRVTISCRLSYGISSELVWYKQKPGKAPELLIYAASILQSGVPSRFSGTGSGTDFTLTISGLQSEDFATYYCQQYYSFPLTFGQGTKVEIK
B5: BD55-5189 (antibody, V domains shown)
VH: QVQLVQSGAEVKKPGASVKVSCKASGYSFTTFYIHWLRQAPGQGLEWMGIVNVAGDTTDYAQNFQGRVTMTRDTSTGTVYMELSSLRSEDTAIYYCASPREKGYSGYDFWETTFDIWGQGTMVTVS
VL: EVVMTQSPATLSVSPGERATLSCRASQSISSNLAWYQQKPGQAPRLLIYGASTRATGIPARFSGSGSGSQFTLTISSLQSEDFVVYYCQQYNNWPPIFGQGTKLEIK
B6: BD55-5195 (antibody, V domains shown)
VH: QLQLQESGPRLVKPSETLSLTCSVSGGSIRSNSDYWAWIRQSPGQGLEWIGSISHSGSTYYNPSLKSRVSIFVDTSSNQFSLNLTSVTAADTAVYHCARHPSSGWLILWFDPWGQGTLVTVSS
VL: EIVLTQSPGTLSLSPGERATLSCRASQSISSNFLAWYQQKPGQAPRLLIYGASNRATDIPDRFSGSGSGTDFTLTVRRLEPEDFAVYYCHQYDTSPQTFGQGTKVEIK
B7: BD55-4760 (antibody, V domains shown)
VH: EVQLVEAGGDLVQPGRSLRLSCAASGFNFDDCAMHWVRQAPGKGLEWVSGINWSSGDIDYADSVKGRFTISRDNAKNSLYLQMNSLRPEDTAFYYCAKDPWGELSSIDFWGQGTLVTVSS
VL: QLVLTQSPSASASLGASVKLTCTLSRGHSSYAIAWHQQQPEKGPRYLMRVNSDGSHIKGDGIPDRFSGSSSGAERYLTISSLQSEDEADYYCQTWSIGIRVFGGGTKLTVL
B8: BD55-5183 (antibody, V domains shown)
VH: QVQLVQSGGEVKKPGSSVKVSCRASGGTFSGYTISWVRRAPGQGLEWMGGIIPMYGAANYAQKFQGRVTISAETSTGTAYMELSGLTSDDTAMYYCARDLGGEDITVAGKAPDYWGQGTLVTVSS
VL: DIQMTQSPSSLSASVGDRVTVTCRASQSISKYLNWYQERPGKAPKLLIYTASSLPSEVPSRFSGSGFGTDFTLTISGLQPEDFATYYCQQSYSLPYTFGQGTKLEIK
B9: BD55-5170 (antibody, V domains shown)
VH: QVQLVESGGGVVQPGRSLRLSCVASGFTFNTYGMHWVRQVPGKGLEWVAVISYDGSNQIYGDSVKGRFTISRDNSKNTVYLQMNGLRAEDTAVYYCATPLHDYSGYDLFDYGYAMDVWGQGTTVTVSS
VL: QSVLTQPPSASGTPGQRVTVSCSGSSSNIGSDYVYWYQQFPGTAPKLLIYRNSQRPSGVPDRFSGSKSGTSASLAISGLRSEDEADYYCAAWDGSISAWVFGGGTKLTVL
B10: BD55-4662 (antibody, V domains shown)
VH: QVQLQESGPGLVKPSETLSLTCTVSGASISSYYWTWIRQPPGKGLEWIGYIYNSGSTDYSPRGSTNYSPSLESRVTISVDTSKNQFSLKLSSVTAADTAVYHCARHPWTEMATYRSAYYFDSWGQGTLVTVSS
VL: QSALTQPASVSGSPGQSITISCTGTTSDVGAYNHVSWYQQHPGKAPNLMIYDVSERPSGVSDRFSASKSGNTASLTISGLQAEDEADYYCCSYAGRSTWMFGGGTKLTVL
B11: BD55-5171 (antibody, V domains shown)
VH: QVQLVQSGSGLKKPGASVKVSCRTSGYSFTDHTINWVRQAPGQGLEWMGWINTATGIPTYAQGFTGRFVFSLDTSVGTAFLLISSLQAADTAVYYCARAASWDYCGNNNCFGDYWGQGTLVTVSS
VL: ENVLTQSPGTLSLSVGERVTLSCRASHSVGSSFLAWYQQKPGQAPRLLIYGASNRATGIPDRISGRGSGTDFSLTISRLEPEDFAVYYCHQYGSSPFTFGQGTKVEIK
B12: BD55-5163 (antibody, V domains shown)
VH: QVQLVQSGAEVKKPGASLKVSCKASGYTFTYFGVSWVRQAPGQGLEWVGWISTYHGDTNYAQKLQGRVTLTTDTSTSTVYMELRNLRSDDTAIYYCAREGGSGWGDFWGQGTLVTVSS
VL: EIVLTQSPATLSLSPGERATLSCRANQSISNYLAWYQQRPGQAPRLLIFDASNRATGIPARFTGSGSETDFTLTISSLEPEDFAVYYCQQRSNWPPAFGQGTRLDIK
B13: BD55-5168 (antibody, V domains shown)
VH: QVQLVQSGSEVKKPGSSVKVSCKASGGSFRSHAISWVRQAPGQGLEWMGCVIPTFDTANYAQNFRGRVTLTADESTSTAYMELTSLTSDDTAVYYCARLFPNGTPDSPTGPLDYWGQGTLVTVSS
VL: DIQMTQSPSSLSASVGDRVTITCQASQGIGNYLNWYQQKPGKAPKLLIYGASNLHTGVPSRFSGRGSGTHFTFTINSLQPEDVATYYCQQYDYVPMYTFGQGTKLEIK
B14: BD55-5175 (antibody, V domains shown)
VH: QVQLVQSGPELKRPGASVKVSCETSGYTFTDYAINWVRQAPGQGLEWMGWINTNTGHPTYAQGFTGRFVFSVDMSDSTAYLQISSLKPADTAVYYCARDFQVPEGLDYWGQGTLVTVSS
VL: DIVMTQSPATLSLSPGETATLSCRASYSFTSRLAWYQQKPGQAPRLLIHDASNRAPGVPARFSGSGSGTEFTLAISGLQSEDSAVYYCQQYHSWPLTFGQGTKVEIK
B15: BD55-5198 (antibody, V domains shown)
VH: EVQLVESGGGVVKPGGSLRLSCAASGFTFSAFAMHWVRQVPGKGLEYISLISEDGYSTFYAASVTGRFTLSRDNNKKSLYLQMNSLRSEDTAFYYCAKDIGGTVAGTGADFWGQGILVTVSS
VL: QSVLTQPPSVSGAPGQKVTISCTGDSSNIGAGYTVHWYQQLPGTAPKLLIYGDNNRPSGVPDRFSGSKSGTSASLAITGLQAEDEADYYCQSYDTSLSGLWVFGGGTRLTVL
B16: BD55-4495 (antibody, V domains shown)
VH: QGHLVQSGAEVKEPGASVTLSCKASGYTFTNHFMHWVRQAPGQGLEWMARINPSGDSTNLAQKFQGRVSVTRDSSTSTVYMYLSRLRVEDTAVYYCARDRFPSPGNFVWGSPLGGMDVWGQGTTVTVSS
VL: SYDLAQPPSVSVSPGQTATITCSGAALPNQYAYWYQQKSGQAPVLLLYKDSERPSGIPERFSGSNSGTTVTLTISGVQAEDEAVYYCQSADSSTSYHVFGAGTKVTVL
B17: BD55-5200 (antibody, V domains shown)
VH: QVQLQESDPGLVKPSQTLSLTCTVSGGSISGGSNFWNWIRQPAGKGLEWIGRIYTSGNTDYNPSLKSRVTISVDTSKNQFSLRLSSVTAADTAVYYCARDRLSGKVEVAINHFSYGLDVWGPGTTVTVSS
VL: SHELTQPPSVSVSPGQTARITCSGDALPKQYAYWYQQKSGQAPVLVIYKDSERPSGIPERFSGSSSGRTVTLTISGVQAEDEADYYCQSADSSNIYLAFGGGTKVTVL
B18: BD55-5164 (antibody, V domains shown)
VH: QLQLQESGPGLVKPSETLSLTCIVSRGSISSSSYFWAWVRQAPGKGLEWIGTIDYTGNTHYNTSLKSRVTISVDTSKNQFSLRLRSVTAADTALYFCSRQSAPPWGSSWGDYWGRGTLVTVSS
VL: DIQMTQSPSSLSASVGDRVTISCQASQDISNYLNWYHQTPGKAPILLIFDASNLEAGVPSRFSGSGSGRHFSFTISSLQPEDTGTYYCQQYANLPALTFGGGTKVDIK
B19: BD55-4892 (antibody, V domains shown)
VH: QVQLVESGGGVVQPGGSLRLSCAASGFTFSTYGMHWVRQAPGKGLEWVAVISYDGNNKYHADSVKGRFTISRDNSKNTLYLEMKSLRAEDTAVYYCAKEVNYGSGSFENEGRLDYWGQGTLVTVSS
VL: DIQMTQSPSSLSASVGDRVTITCRTSQSINRYLNWYQQKPGKAPKLLIYATSTLQSGVPSRFSGSGSGTDFILTISNLQPEDFAAYYCQQTYSIPWTFGQGTKVEIK
B20: BD55-5201 (antibody, V domains shown)
VH: QVQVVQSGAEVKKPGSSVKVSCEASGGTFSSDTIHWVRQAPGQGLEWMGRIIPIPGIVNYAQKFQGRVTITADKSTSIAYMELSSLRSEDTAVYYCASAPPRGYSGYDLLGNDPLDIWGQGTMVTVSS
VL: QSVLTQPPSVSGAPGQRVTISCTGSSSNIGAGYDVHWYQQLPGTAPKFFISVNNNRPSGVPDRFSGSKSGTSASLAITGLQAEDEAVYYCQSFDSSLSGSYVFGTGTKVTVL
B21: BD55-4664 (antibody, V domains shown)
VH: QVQLQQWGAGLLRPSETLSLTCAVSGGSFSGYYWSWIRQPPGKGLEWIGEINHTGGTNYNPSLKSRVTVSIDMSRNQFSVKLNSLTAADTAVYFCAREAPDYFDSSGYRFDYWGQGALVTISS
VL: QSALTQPASVSGSPGQSITISCTGTSNDVGGYNYVSWYQQHPGKAPKLIIYDVTSRPSGISNRFSGSKSGNTASLTISGLQAEDEADYYCCSYTRSFTRVFGGGTKLTVL

For this assay, the target named is SARS-CoV-2 (WT) Spike RBD Protein (His Tag) (SARS-CoV-2 ancestral (Wuhan-Hu-1), UniProt P0DTC2).
Turning to B1, the binding result is “binds”.
The value for B2 was “binds”.
The value for B3 was “binds”; that for B4 was “binds”; that for B5 was “binds”.
Regarding B6, the binding result was “binds”.
The value for B7 was “binds”; that for B8 was “binds”; that for B9 was “binds”.
As for B10, the entry is “binds”.
The value for B11 was “binds”; that for B12 was “binds”.
For B13, the binding result is listed as “binds”.
On to B14, for which the binding result is “binds”.
Regarding B15, the binding result is “binds”.
The value for B16 was “binds”; that for B17 was “binds”.
The value for B18 was “binds”; that for B19 was “binds”.
As for B20, the entry is “binds”; as for B21, “binds”.
